# Measured values reported in article PMC12146848, “Deciphering meiotic chromatin organization by SYCP3”.
# T1: SYCP3 (Mus musculus, UniProt P70281)
# T1 sequence: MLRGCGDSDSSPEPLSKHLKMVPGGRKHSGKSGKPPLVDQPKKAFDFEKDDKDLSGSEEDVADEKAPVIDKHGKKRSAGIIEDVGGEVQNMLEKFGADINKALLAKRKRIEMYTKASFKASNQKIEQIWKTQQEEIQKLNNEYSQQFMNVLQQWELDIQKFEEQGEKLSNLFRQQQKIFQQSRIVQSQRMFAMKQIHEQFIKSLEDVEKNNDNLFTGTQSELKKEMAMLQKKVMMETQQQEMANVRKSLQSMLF
# Legend:
# SYCP3 [1] = target: T1, SYCP3; test: EMSA; 0.2 uM probe, 1 ug SYCP3 in 15 ul; Beyotime GS008 Gel-Shift binding buffer (composition and pH not given), 15 ul, 1 h at room temperature, 4% polyacrylamide gel; conditions: protein: recombinant; tags: C-terminal 6xHis; chain copies: 4; label: 3' biotin-dUTP added by TdT on both strands; blunt before 3' TdT labeling
# SYCP3 [2] = target: T1, SYCP3; test: competition; 50-fold excess against labeled WT Probe; efficient competition; Beyotime GS008 Gel-Shift binding buffer (composition and pH not given), 15 ul, 1 h at room temperature, 4% polyacrylamide gel; conditions: protein: recombinant; tags: C-terminal 6xHis; chain copies: 4; label: unlabeled; blunt
# SYCP3 [3] = target: T1, SYCP3; test: competition; 50-fold excess against labeled WT Probe; higher affinity than WT; Beyotime GS008 Gel-Shift binding buffer (composition and pH not given), 15 ul, 1 h at room temperature, 4% polyacrylamide gel; conditions: protein: recombinant; tags: C-terminal 6xHis; chain copies: 4; label: unlabeled; blunt
# SYCP3 [4] = target: T1, SYCP3; test: EMSA; stronger than WT Probe; Beyotime GS008 Gel-Shift binding buffer (composition and pH not given), 15 ul, 1 h at room temperature, 4% polyacrylamide gel; conditions: protein: recombinant; tags: C-terminal 6xHis; chain copies: 4; label: 3' biotin-dUTP added by TdT on both strands; blunt before 3' TdT labeling
binder,measurement,setting,value
WT Probe (dsDNA) DNA 1: ACAGTCCTGGTGATTGAACTCCGGCCCTGGGCATGCCAGGCGAGCACTCCACTCTTTGAG DNA 2: CTCAAAGAGTGGAGTGCTCGCCTGGCATGCCCAGGGCCGGAGTTCAATCACCAGGACTGT,binding result,SYCP3 [1],binds
WT competitor (dsDNA) DNA 1: ACAGTCCTGGTGATTGAACTCCGGCCCTGGGCATGCCAGGCGAGCACTCCACTCTTTGAG DNA 2: CTCAAAGAGTGGAGTGCTCGCCTGGCATGCCCAGGGCCGGAGTTCAATCACCAGGACTGT,binding result,SYCP3 [2],binds
Mut competitor (dsDNA) DNA 1: GTGACTTCAACAGCCAGGTCTTAATTTCAAATGCATTGAATAGATGTCTTGTCTCCCAGA DNA 2: TCTGGGAGACAAGACATCTATTCAATGCATTTGAAATTAAGACCTGGCTGTTGAAGTCAC,binding result,SYCP3 [3],binds
Mut probe (dsDNA) DNA 1: GTGACTTCAACAGCCAGGTCTTAATTTCAAATGCATTGAATAGATGTCTTGTCTCCCAGA DNA 2: TCTGGGAGACAAGACATCTATTCAATGCATTTGAAATTAAGACCTGGCTGTTGAAGTCAC,binding result,SYCP3 [4],binds
